Experimental data: patent US20180237497A1 (CANCER RESEARCH TECHNOLOGY, published 2018)
Residue numbers refer to the chain shown, from its start.

B1: domain 11^AB5 G1603A (receptor)
chain: MKSNEHDDCQVTNPSTGHLFDLSSLSGRAGFTAAYAKGWGVYMSICGENENCPPGVGACFGQTRISVGKANKRLRYVDQVLQLVYKDGSPCPSKSALSYKSVISFVCRPEAGPTNRPMLISLDKQTCTLFFSWHTPLACEQATECSV
notes: See m5
B2: domain 11^AB5 K1601A (receptor)
chain: B1 chain with K94A, A96G
notes: See m5
B3: domain 11^AB5 K1631A (receptor)
chain: B1 chain with A96G, K124A
notes: See m5; HI loop mutant
B4: domain 11^AB5 Q1632A (receptor)
chain: B1 chain with A96G, Q125A
notes: See m5; HI loop mutant
B5: domain 11^AB5 P1599A (receptor)
chain: B1 chain with P92A, A96G
notes: See m5; the asterisk is not explained
B6: domain 11^AB5 P1599G (receptor)
chain: B1 chain with P92G, A96G
notes: as for B5
B7: domain 11^AB5 Q1632L (receptor)
chain: B1 chain with A96G, Q125L
notes: See m5; HI loop mutant
B8: domain 11^AB5 S1600A (receptor)
chain: B1 chain with S93A, A96G
notes: See m5
B9: domain 11^AB5 Q1632E (receptor)
chain: B1 chain with A96G, Q125E
notes: See m5; HI loop mutant
B10: domain 11^AB5 K1631W (receptor)
chain: B1 chain with A96G, K124W
notes: See m5; HI loop mutant
B11: domain 11^AB5 K1631E (receptor)
chain: B1 chain with A96G, K124E
notes: See m5; HI loop mutant
B12: domain 11^AB5 K1631R (receptor)
chain: B1 chain with A96G, K124R
notes: See m5; HI loop mutant
B13: domain 11^AB5 Q1632K (receptor)
chain: B1 chain with A96G, Q125K
notes: See m5; HI loop mutant
B14: domain 11^AB5 S1600N (receptor)
chain: B1 chain with S93N, A96G
notes: See m5
B15: domain 11^AB5 S1600L (receptor)
chain: B1 chain with S93L, A96G
notes: See m5
B16: domain 11^AB5 P1599V (receptor)
chain: B1 chain with P92V, A96G
notes: as for B5
B17: domain 11^AB5 L1604A (receptor)
chain: B1 chain with A96G, L97A
notes: See m5

Molecular target: T1, human IGF2^1-67 (mature insulin-like growth factor 2) (human, UniProt P01344 25-91, biotinylated (site not stated) where immobilised on the chip (Tables 1-4))
T1 construct: mature; also called mature IGF2; biotinylated IGF2
T1 sequence (P01344 25-91): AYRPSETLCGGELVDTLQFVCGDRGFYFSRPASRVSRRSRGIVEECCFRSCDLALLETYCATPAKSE
Assay: SPR kinetic, biotin-IGF2 on chip, pH 7.4
Description: (§1) Surface plasmon resonance (SPR) binding analysis of recombinant M6P/IGF2R domain 11 mutants interaction with IGF2. Kon indicates association (on) rate; koff, dissociation (off) rate; RU, response units. Binding to IGF2 assessed with BIAcore T200 using purified biotinylated IGF2 and IGF1 on a streptavidin biosensor chip. Recombinant proteins were expressed either in E. coli and/or P. pastoris. All the mutants in the FG and CD loops are on the domain 11^AB5 background for the AB loop unless otherwise stated. All experiments were carried out at 25° C. in HBS-EP buffer (pH 7.4), were repeated 2-5 times on two independent BIAcore chips. nd=not determined. Data for KD expressed as mean of each experiment, and means of kon and koff are shown.
(§2) Final kinetic analysis of mutants by SPR was conducted using a Biacore T200 biosensor at 25° C. in either HBS-EP (10 mM HEPES pH 7.4, 150 mM NaCl, 3 mM EDTA, and 0.005% (v/v) surfactant P20) or MES-EP (20 mM MES pH 6.5, 150 mM NaCl, 3 mM EDTA, and 0.005% (v/v) surfactant P20) at a flow-rate of 40 μL min⁻¹. […] For the analysis of the Fc-domain 11^AB5 interaction, approximately 50 RU of a biotinylated IGF2:biotinylated ubiquitin mixture (1:8 proportion) was immobilized on the CM5-streptavidin chip. This interaction was also analysed by immobilizing the Fc-domain 11^AB5 and Fc-domain 11^AB5-RHH (or Fc-domain 11^I1572A as control) by Human Antibody Capture (monoclonal mouse anti-human IgG antibody immobilised on a CM5 chip by amine coupling, GE Healthcare) with and without human IgG1 Fc fragment (Bethyl Laboratories, UK) in the control flow cell. […] T200 BiaEvaluation software (GE Healthcare) was used to fit the resulting curves according to a 1:1 binding model. Steady state affinities were determined using the kinetic data, taking the response average at 5 seconds before injection end and for 5 seconds average.

Row | Kd [nM] | koff [s⁻¹] | kon [M⁻¹ s⁻¹] | Binder
1 | 8.69 | 0.0183 | 2.14e+06 | B1
2 | 6.8 | 0.022 | 3.26e+06 | B2
3 | > 200 |  |  | B3
4 | 3.76 | 0.0167 | 4.5e+06 | B4
5 | > 70 | > 0.1 |  | B5
6 | > 200 | > 0.2 |  | B6
7 | 5.75 | 0.0175 | 3.18e+06 | B7
8 | 89.1 | 0.213 | 2.39e+06 | B8
9 | 39.8 | 0.0202 | 520000 | B9
10 | 2.94 | 0.0034 | 1.18e+06 | B10
11 | > 100 | > 0.1 |  | B11
12 | 12.3 | 0.0867 | 7.18e+06 | B12
13 | 11.1 | 0.0212 | 1.96e+06 | B13
14 | 24.4 | 0.091 | 3.95e+06 | B14
15 | > 200 | > 0.2 |  | B15
16 | > 100 | > 0.1 |  | B16
17 | 48.3 | 0.0397 | 790000 | B17

Molecular target: T1, human IGF2^1-67 (mature insulin-like …)
Assay: SPR steady state, biotin-IGF2 on chip, pH 7.4
Description: as §1, §2

Row | Kd [nM] | Binder
18 | 12.1 | B1
19 | 8.51 | B2
20 | > 200 | B3
21 | 4.84 | B4
22 | > 70 | B5
23 | > 200 | B6
24 | 9.34 | B7
25 | 84.7 | B8
26 | 52.4 | B9
27 | 12.2 | B10
28 | > 100 | B11
29 | 13.5 | B12
30 | 12.8 | B13
31 | 29.7 | B14
32 | > 200 | B15
33 | > 100 | B16
34 | 60 | B17
